Publication PMC4466255, “Direct Ionic Regulation of the Activity of Myo-Inositol Biosynthesis Enzymes in Mozambique Tilapia” (PLoS ONE, 2015)

B1: IMPase 1 (Oreochromis mossambicus) (protein)
chain: MEDPWQKAYDFAVAVARKAGAEIRKAGESEIRVMTKSSTVDLVTKTDERVEKIIIGSLKEEFGEGTHCFIGEESVAKGEPCILTDKPTWIIDPVDGTTNFVHGFPFVAVSIAFAVNKELEFGVVYSCLEDKMYKARKGKGAFCDNEPIAVSDVKDINRSIIIFEHGTDRSPEKVTKIFFTMQKILCIPVHGLRGSGTAGYKQCLVVIGGSEGVFDIGIHCWDIAAGADIVKEAGGILLDVDGGPFDLMSRRMVSANNETIAKRIIKEIEIFPVVRDDAPIEKK
notes: full-length CDS from seawater-acclimated gill cDNA, pET24a, 6xHis tag kept (C-terminal in Results, amino-terminal in Methods), E. coli Rosetta 2(DE3)pLysS, 32 kDa

Columns and labels:
MIPS-160 = molecular target: T1, MIPS-160 (Oreochromis mossambicus, UniProt Q1KN76); assay: activity with or without NAD+; assay type: biochemical; settings: G6P as substrate; 28°C
T1 construct: full-length CDS from seawater-acclimated gill cDNA, pET24a, 6xHis tag kept (C-terminal in Results, amino-terminal in Methods), E. coli Rosetta 2(DE3)pLysS, 61 kDa
T1 sequence (Q1KN76 1-518): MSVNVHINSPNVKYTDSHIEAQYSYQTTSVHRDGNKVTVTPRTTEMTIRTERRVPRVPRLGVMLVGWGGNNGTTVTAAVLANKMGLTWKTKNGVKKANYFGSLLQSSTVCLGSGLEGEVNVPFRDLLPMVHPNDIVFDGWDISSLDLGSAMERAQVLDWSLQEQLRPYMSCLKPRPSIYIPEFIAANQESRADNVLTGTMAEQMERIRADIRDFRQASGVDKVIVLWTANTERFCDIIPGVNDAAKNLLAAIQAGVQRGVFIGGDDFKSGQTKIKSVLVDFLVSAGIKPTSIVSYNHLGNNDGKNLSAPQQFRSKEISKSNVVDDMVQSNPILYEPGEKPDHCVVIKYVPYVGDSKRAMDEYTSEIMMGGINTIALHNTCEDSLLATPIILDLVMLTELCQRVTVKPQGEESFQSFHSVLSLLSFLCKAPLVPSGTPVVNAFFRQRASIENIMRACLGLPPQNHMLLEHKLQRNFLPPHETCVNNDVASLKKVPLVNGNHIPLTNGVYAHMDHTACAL

[1] = substrate: O=P(O)(O)O[C@@H]1[C@@H](O)[C@H](O)[C@@H](O)[C@H](O)[C@@H]1O; assay: Pi release, BioMol Green, Michaelis-Menten fit; assay type: biochemical, Oreochromis mossambicus; settings: 50 mM Tris-HCl pH 8.2, 50 mM NaCl, 1 mM MgCl2, 28°C, standard buffer IAB, 220 mOsm
Text: (§1) Pi release, BioMol Green, Michaelis-Menten fit on IMPase 1

[2] = substrate: O=P(O)(O)O[C@@H]1[C@H](O)[C@H](O)[C@@H](O)[C@H](O)[C@H]1O; assay: Pi release, BioMol Green, Michaelis-Menten fit; assay type: biochemical, Oreochromis mossambicus; settings: 50 mM Tris-HCl pH 8.2, 50 mM NaCl, 1 mM MgCl2, 28°C, standard buffer IAB, 220 mOsm
Text: as §1

Molecule	activity with or without NAD+ (MIPS-160)	Km [1]	Vmax [1]	kcat [1]	kcat/Km [1]	Km [2]	Vmax [2]	kcat [2]	kcat/Km [2]
NC(=O)c1ccc[n+]([C@@H]2O[C@H](COP(=O)(O)OP(=O)(O)OC[C@H]3O[C@@H](n4cnc5c(N)ncnc54)[C@H](O)[C@@H]3O)[C@@H](O)[C@H]2O)c1 [NAD^+]	MIPS-160 activity depends on NAD^+ (Fig 5B)	–	–	–	–	–	–	–	–
B1	–	930 ± 350 µM	0.0027 ± 0.0006 nmol/s	0.962 ± 0.102 s⁻¹	1050 ± 200 M⁻¹ s⁻¹	538 ± 74 µM	0.0073 ± 0.0007 nmol/s	2.585 ± 0.112 s⁻¹	4800 ± 1100 M⁻¹ s⁻¹
